From patent publication US20150274826A1 (ARCH ONCOLOGY, published 2015)

Legend:
Assay in all cases: flow cytometry on RBCs, CHO supernatant 10 ng/ml
human CD47 = target: T1, human CD47 (human, UniProt Q08722 19-323)
T1 construct: whole, on cells; also called CD47 on human RBCs; CD47 on OV10 cells
Method: (§1) RBCs are incubated for 60 minutes on ice with tissue culture supernatants containing the secreted humanized antibodies at a concentration of 10 ng/ml in a solution of phosphate buffered saline, pH 7.2, 2.5 mM EDTA (PBS+E), or with various concentrations of purified antibodies. Cells are then washed with cold PBS+E, and incubated for an additional hour on ice with FITC labeled donkey anti-human antibody (Jackson Immuno Research Labs, West Grove, Pa.; Catalogue #709-096-149) in PBS+E. Cells are then washed with PBS+E, and antibody binding is analyzed using a BD FACSAria Cell Sorter (Becton Dickinson) or a C6 Accuri Flow Cytometer (Becton Dickinson). Antibody binding is quantitated by comparison of mean fluorescence values relative to that of chimeric antibody >VxP037-01LC (SEQ ID NO:7))/>VxPO37-01HC (SEQ ID NO:57). The mean fluorescence value for each antibody is divided by the mean fluorescence value for the chimeric antibody.

mouse CD47 = target: T2, mouse CD47 (mouse, UniProt Q61735 19-303)
T2 construct: whole, on cells; also called CD47 on mouse RBCs; CD47 on 4T1 cells
T2 sequence (looked up): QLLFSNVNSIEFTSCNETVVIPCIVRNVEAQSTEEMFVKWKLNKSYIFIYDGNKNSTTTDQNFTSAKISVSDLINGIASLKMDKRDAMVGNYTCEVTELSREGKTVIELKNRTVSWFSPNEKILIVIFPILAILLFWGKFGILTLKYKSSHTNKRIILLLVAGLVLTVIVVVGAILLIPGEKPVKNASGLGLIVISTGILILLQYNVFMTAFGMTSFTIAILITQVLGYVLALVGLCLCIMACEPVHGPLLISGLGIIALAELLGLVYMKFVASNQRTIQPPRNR
Method: as §1

rat CD47 = target: T3, rat CD47 (rat, UniProt P97829 19-303)
T3 construct: whole, on cells; also called CD47 on rat RBCs
T3 sequence (looked up): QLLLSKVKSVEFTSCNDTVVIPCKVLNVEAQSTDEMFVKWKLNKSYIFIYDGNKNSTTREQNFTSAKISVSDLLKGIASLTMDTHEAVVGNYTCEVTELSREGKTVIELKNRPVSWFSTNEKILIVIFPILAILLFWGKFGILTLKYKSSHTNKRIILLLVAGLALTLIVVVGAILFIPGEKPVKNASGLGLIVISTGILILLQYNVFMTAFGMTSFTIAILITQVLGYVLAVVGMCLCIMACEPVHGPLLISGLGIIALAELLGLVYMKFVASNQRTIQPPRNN
Method: as §1

pig CD47 = target: T4, pig CD47 (pig, UniProt Q9GKE8 19-303)
T4 construct: whole, on cells; also called CD47 on porcine RBCs
T4 sequence (looked up): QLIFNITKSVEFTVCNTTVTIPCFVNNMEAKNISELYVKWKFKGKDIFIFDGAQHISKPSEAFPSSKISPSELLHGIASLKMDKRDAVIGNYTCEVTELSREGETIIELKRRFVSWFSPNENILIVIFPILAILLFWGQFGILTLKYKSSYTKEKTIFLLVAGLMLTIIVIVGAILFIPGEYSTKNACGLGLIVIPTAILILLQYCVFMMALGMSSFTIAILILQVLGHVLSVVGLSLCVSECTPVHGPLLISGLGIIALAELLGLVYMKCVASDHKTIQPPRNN
Method: as §1

dog CD47 = target: T5, dog CD47 (dog, UniProt A0A8I3PM61 19-310)
T5 construct: also called CD47 on dog RBCs
T5 sequence: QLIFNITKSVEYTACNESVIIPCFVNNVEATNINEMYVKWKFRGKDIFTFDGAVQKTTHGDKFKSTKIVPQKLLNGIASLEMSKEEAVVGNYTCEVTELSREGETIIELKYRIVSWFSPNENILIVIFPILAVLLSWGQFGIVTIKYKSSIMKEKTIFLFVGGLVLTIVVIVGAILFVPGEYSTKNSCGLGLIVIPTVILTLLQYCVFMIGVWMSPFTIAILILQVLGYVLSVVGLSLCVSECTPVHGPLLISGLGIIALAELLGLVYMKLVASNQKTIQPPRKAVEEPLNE
Method: as §1

T1 sequence (Q08722 19-323): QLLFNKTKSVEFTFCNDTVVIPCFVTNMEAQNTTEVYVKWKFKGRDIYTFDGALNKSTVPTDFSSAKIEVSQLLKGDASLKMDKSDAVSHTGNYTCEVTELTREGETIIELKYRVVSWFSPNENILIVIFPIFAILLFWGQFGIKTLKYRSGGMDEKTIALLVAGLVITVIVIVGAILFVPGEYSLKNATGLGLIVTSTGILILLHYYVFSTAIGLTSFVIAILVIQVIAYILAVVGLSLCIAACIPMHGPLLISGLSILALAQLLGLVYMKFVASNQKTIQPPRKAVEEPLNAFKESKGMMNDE

Row | Binder | mean fluorescence relative to chimeric antibody (human CD47) [ratio] | mean fluorescence relative to chimeric antibody (mouse CD47) [ratio] | mean fluorescence relative to chimeric antibody (rat CD47) [ratio] | mean fluorescence relative to chimeric antibody (pig CD47) [ratio] | mean fluorescence relative to chimeric antibody (dog CD47) [ratio]
1 | Clone 15 (pVxK7b-037-hum15-LC / pVxK7b-037-hum15-HC) (antibody, human IgG1, kappa, V domains shown) VH: QVQLQESGPGLVKPSQTLSLTCTVSGYTFTNYYVFWVRQARGQRLEWIGDINPVNGDTNFNEKFKNRLTISKDTSKNQVVLTMTNMDPVDTATYYCARGGYTMDYWGQGTLVTVSS VL: AIQLTQSPSSLSASVGDRVTITCRSSQSLVHSNGNTYLHWYQQKPGQAPRLLIYKVSYRFSGVPSRFSGSGSGTEFTLTISSLQPDDFATYYCSQNTHVPRTFGQGTKVEIKR | 1 | 1.3 | 2.4 | 1.2 | 1.1
2 | Clone 22 (pVxK7b-037-hum22-LC / pVxK7b-037-hum22-HC) (antibody, human IgG1, kappa, V domains shown) VH: QVQLQESGPGLVKPSQTLSLTCTVSGYTFTNYYVFWVRQARGQRLEWIGDINPVNGDTNFNEKFKNRLTISKDTSKNQVVLTMTNMDPVDTATYYCARGGYTMDYWGQGTLVTVSS VL: EIVLTQSPATLSVSPGERATLSCRSSQSLVHSNGNTYLHWYQQKPGQAPRLLIYKVSYRFSGVPSRFSGSGSGTDFTFTISSLEAEDAATYYCSQNTHVPRTFGQGTKVEIKR | 1.1 | 1.2 | 2.8 | 1.4 | 1
3 | Clone 21 (pVxK7b-037-hum21-LC / pVxK7b-037-hum21-HC) (antibody, human IgG1, kappa, V domains shown) VH: QVQLQESGPGLVKPSQTLSLTCTVSGYTFTNYYVFWVRQARGQRLEWIGDINPVNGDTNFNEKFKNRLTISKDTSKNQVVLTMTNMDPVDTATYYCARGGYTMDYWGQGTLVTVSS VL: AIQLTQSPSSLSASVGDRVTITCRSSQSLVHSNGNTYLHWYQQKPGQAPRLLIYKVSYRFSGVPDRFSGSGSGTDFTLKISRVEAEDVGVYYCSQNTHVPRTFGQGTKVEIKR | 1.2 | 1.2 | 2.8 | 1.4 | 1.1
4 | Clone 6 (pVxK7b-037-hum06-LC / pVxK7b-037-hum06-HC) (antibody, human IgG1, kappa, V domains shown) VH: QVQLQESGPGLVKPSQTLSLTCTVSGYTFTNYYVFWVRQARGQRLEWIGDINPVNGDTNFNEKFKNRLTISKDTSKNQVVLTMTNMDPVDTATYYCARGGYTMDYWGQGTLVTVSS VL: DIQMTQSPSSLSASVGDRVTITCRSSQSLVHSNGNTYLHWYLQKPGQSPQLLIYKVSYRFSGIPARFSGSGSGTEFTLTISSLQSEDFAVYYCSQNTHVPRTFGQGTKVEIKR | 0.9 | 1.2 | 2.1 | 1.1 | 1.1
5 | Clone 2 (pVxK7b-037-hum02-LC / pVxK7b-037-hum02-HC) (antibody, human IgG1, kappa, V domains shown) VH: QVQLQESGPGLVKPSQTLSLTCTVSGYTFTNYYVFWVRQARGQRLEWIGDINPVNGDTNFNEKFKNRVTISADKSISTAYLQWSSLKASDTAMYYCARGGYTMDYWGQGTLVTVSS VL: DVVMTQSPLSLPVTLGQPASISCRSSQSLVHSNGNTYLHWYQQKPGQAPRLLIYKVSYRFSGVPSRFSGSGSGTEFTLTISSLQPDDFATYYCSQNTHVPRTFGQGTKVEIKR | 1 | 1.2 | 2.6 | 1.2 | 1
6 | chimeric antibody VxP037-01LC-Pro/VxP037-01HC-Pro (antibody, human IgG1, kappa, V domains shown, also called Chimera; VxP037-01LC/VxP037-01HC) VH: EVQLQQFGAELVKPGASMKLSCKASGYTFTNYYVFWVKQRPGQGLEWIGDINPVNGDTNFNEKFKNKATLTVDKSSTTTYLQLSSLTSEDSAVYYCTRGGYTMDYWGQGTLVTVSS VL: DVVMTQTPLSLSVSLGDQASISCRSSQSLVHSNGNTYLHWYLQKPGQSPKLLIYKVSYRFSGVPDRFSGSGSGTDFTLKISRVEAEDLGVYFCSQNTHVPRTFGQGTKVEIKR | 1 | 1 | 1 | 1 | 1
7 | Clone 14 (pVxK7b-037-hum14-LC / pVxK7b-037-hum14-HC) (antibody, human IgG1, kappa) heavy: not shown light: DVVMTQSPLSLPVTLGQPASISCRSSQSLVHSNGNTYLHWYQQKPGKAPKLLIYKVSYRFSGVPDRFSGSGSGTDFTLKISRVEAEDVGVYYCSQNTHVPRTFGQGTKVEIKRTVAAPSVFIFPPSDEQLKSGTASVVCLLNNFYPREAKVQWKVDNALQSGNSQESVTEQDSKDSTYSLSSTLTLSKADYEKHKVYACEVTHQGLSSPVTKSFNRGEC | 1.1 | 1.5 | 3.2 | 1.4 | 1.3
8 | Clone 20 (pVxK7b-037-hum20-LC / pVxK7b-037-hum20-HC) (antibody, human IgG1, kappa) heavy: not shown light: DIVMTQTPLSLPVTPGEPASISCRSSQSLVHSNGNTYLHWYLQKPGQSPQLLIYKVSYRFSGVPDRFSGSGSGTDFTLKISRVEAEDVGVYYCSQNTHVPRTFGQGTKVEIKRTVAAPSVFIFPPSDEQLKSGTASVVCLLNNFYPREAKVQWKVDNALQSGNSQESVTEQDSKDSTYSLSSTLTLSKADYEKHKVYACEVTHQGLSSPVTKSFNRGEC | 1.3 | 1.5 | 1.9 | 1.7 | 1.1
9 | Clone 19 (pVxK7b-037-hum19-LC / pVxK7b-037-hum19-HC) (antibody, human IgG1, kappa) heavy: not shown light: DVVMTQSPLSLPVTLGQPASISCRSSQSLVHSNGNTYLHWYQQKPGKAPKLLIYKVSYRFSGVPDRFSGSGSGTDFTLKISRVEAEDVGVYYCSQNTHVPRTFGQGTKVEIKRTVAAPSVFIFPPSDEQLKSGTASVVCLLNNFYPREAKVQWKVDNALQSGNSQESVTEQDSKDSTYSLSSTLTLSKADYEKHKVYACEVTHQGLSSPVTKSFNRGEC | 0.7 | 1 | 2.6 | 1.3 | 1.2
10 | Clone 23 (pVxK7b-037-hum23-LC / pVxK7b-037-hum23-HC) (antibody, human IgG1, kappa) heavy: not shown light: DIVMTQTPLSLPVTPGEPASISCRSSQSLVHSNGNTYLHWYQQKPGKAPKLLIYKVSYRFSGVPDRFSGSGSGTDFTLKISRVEAEDVGVYYCSQNTHVPRTFGQGTKVEIKRTVAAPSVFIFPPSDEQLKSGTASVVCLLNNFYPREAKVQWKVDNALQSGNSQESVTEQDSKDSTYSLSSTLTLSKADYEKHKVYACEVTHQGLSSPVTKSFNRGEC | 1.2 | 1.4 | 3.3 | 1.7 | 1.1
11 | Clone 3 (pVxK7b-037-hum03-LC / pVxK7b-037-hum03-HC) (antibody, human IgG1, kappa) heavy: not shown light: DVVMTQSPLSLPVTLGQPASISCRSSQSLVHSNGNTYLHWYQQKPGKAPKLLIYKVSYRFSGVPDRFSGSGSGTDFTLKISRVEAEDVGVYYCSQNTHVPRTFGQGTKVEIKRTVAAPSVFIFPPSDEQLKSGTASVVCLLNNFYPREAKVQWKVDNALQSGNSQESVTEQDSKDSTYSLSSTLTLSKADYEKHKVYACEVTHQGLSSPVTKSFNRGEC | 0.7 | 0.9 | 1.7 | 0.9 | 0.9
